Measured values published in patent US20230134580A1 (SHANGHAI HENLIUS BIOTECH, published 2023).
Positions count from the first letter of the chain named. Like-named read-outs stand apart in the source and are kept apart here.

Tests used:
[1] = biological target: T1, human TIGIT (T cell immunoreceptor with Ig and ITIM domains), expressed on cells (human, UniProt Q495A1 22-244); assay: cell-based or functional assay
T1 sequence: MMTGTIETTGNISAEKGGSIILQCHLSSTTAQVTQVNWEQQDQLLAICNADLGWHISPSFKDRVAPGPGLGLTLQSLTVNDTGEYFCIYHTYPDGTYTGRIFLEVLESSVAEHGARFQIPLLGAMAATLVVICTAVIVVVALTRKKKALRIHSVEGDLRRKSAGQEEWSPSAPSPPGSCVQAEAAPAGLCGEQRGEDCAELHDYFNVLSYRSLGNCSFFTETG

[2] = biological target: T2, recombinant human TIGIT extracellular domain (ECD) (human, UniProt Q495A1 22-138); assay: blocking ELISA, VHH clone against PVR binding to h-TIGIT
T2 construct: Bought protein (Arco Bio); also called h-TIGIT ECD; h-TIGIT
T2 sequence: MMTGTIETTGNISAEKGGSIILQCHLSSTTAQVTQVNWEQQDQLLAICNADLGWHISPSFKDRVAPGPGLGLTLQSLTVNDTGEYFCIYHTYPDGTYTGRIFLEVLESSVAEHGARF

[3] = biological target: T1, human TIGIT (T cell immunoreceptor with …); assay: flow cytometry, whole cell binding to Jurkat cells stably expressing human TIGIT; Alexa Fluor 488 anti-human IgG Fc secondary antibody
Description: FIGS. 1A-1C depict whole cell binding of representative VHH bivalent antibodies to human TIGIT determined by flowcytometry assays. […] Y axis represents Mean Fluorescence Intensity of AlexaFlour 488. X axis represents antibody concentrations in nanomolar. […] FIG. 1C is a schematic of the structure of a TIGIT VHH bivalent antibody.
(§1) Jurkat cells stably expressing human TIGIT and NFAT reporter gene were established. Specifically, Jurkat cells were transfected with human TIGIT expression vector by electroporation, and cells stably expressing human TIGIT were selected by 1 μg/ml puromycin during cell culture. Representative antibody clones were incubated at different concentrations with h-TIGIT stably expressing Jurkat cells (0.2×10^6/ml) in 100 μl/well in 96-well plate in FACS buffer (PBS with 1.5% FBS) for 30 min. After washing, Alexaflour 488 conjugated anti-human IgG Fc secondary antibody (Alexa Fluor® 488 AffiniPure Goat Anti-Human IgG, Fcγ fragment specific, Jackson labs, 1:500 dilution) was added and incubated for 30 min. After washing, mean fluorescence intensity was measured using CytoFlex (Beckman Coulter) by gating live cell population. Binding affinity was calculated using GraphPad Prism.

[4] = biological target: T1, human TIGIT (T cell immunoreceptor with …); assay: cell-based or functional assay; remark: listed apart in the source
[5] = biological target: T1, human TIGIT (T cell immunoreceptor with …); assay: flow cytometry, whole cell binding to Jurkat cells stably expressing human TIGIT; anti-human IgG Fc AlexaFluor488
Description: Y axis is values of Mean Fluorescence Intensity of AlexaFlour 488. X axis is values of antibody concentrations in nanomolar.
The binding affinities of the humanized bivalent antibodies to human TIGIT were determined by whole cell binding to h-TIGIT stably expressed on Jurkat cells. Briefly, antibodies were incubated with h-TIGIT transfected Jurkat cells (0.2×10⁶/well in 100 μl) for 30 min in FACS buffer. The cells were washed once, then incubated with anti-human IgG Fc AlexaFluor488 (1:500).

[6] = biological target: T1, human TIGIT (T cell immunoreceptor with …); assay: cell-based or functional assay; remark: listed apart in the source
[7] = biological target: T1, human TIGIT (T cell immunoreceptor with …); assay: cell-based or functional assay; remark: listed apart in the source
[8] = biological target: T1, human TIGIT (T cell immunoreceptor with …); assay: whole cell binding assays, n=3 (FIG. 10A)
Description: as §1

[9] = biological target: T1, human TIGIT (T cell immunoreceptor with …); assay: cell-based or functional assay; remark: listed apart in the source
[10] = biological target: T1, human TIGIT (T cell immunoreceptor with …); assay: cell-based or functional assay; remark: listed apart in the source
[11] = biological target: T1, human TIGIT (T cell immunoreceptor with …); assay: cell-based or functional assay; remark: listed apart in the source

B1: 3F10 bivalent VHH antibody (Fc fusion)
VHH: QVQLVESGGGLVQAGGSLRLSCASSEHTFSNFPMGWFRQAPGKERNVVAAIDSSGRLTYYADSVKGRFTISKDNAKSTVYLQMNSLKSEDTARYYCAARTGGVGYYSRSSFYNYWGQGTLVTVSS
- EC50 (read off the curve), NFAT luciferase reporter, TIGIT blockade [1]: ~300 pM

B2: 3F10 VHH (VHH)
VHH: B1 VHH
notes: Tested as VHH in SS320 culture supernatant
- % inhibition of PVR binding to h-TIGIT [2]: > 90%

B3: 2B10 bivalent VHH antibody (Fc fusion)
VHH: QVKLEESGGGLVQTGDSLRLSCAASSRIFRRYAMGWFRQAPGKEREFVAAITWSGASTTYTDSVKGRFTISRDSAENTTYLQMTSLRPEDTAVYYCAADPWGSVIVGTAEYEYWGQGTLVTVSS
- EC50 (read off the curve), NFAT luciferase reporter, TIGIT blockade [1]: ~700 pM

B4: 2B10 VHH (VHH)
VHH: B3 VHH
notes: as for B2
- % inhibition of PVR binding to h-TIGIT [2]: > 90%

B5: 1C12 VHH (VHH)
VHH: QVQLVESGGGLVQTGDSLRLSCAASSRIFSRYGMGWFRQAPGKEREFVAAISWNGASTTYTDSVKGRFTISRDSAENTTYLQINSLRPEDTAVYYCAADPWGAVKLGTAEYEYWGQGTQVTVSS
notes: as for B2
- % inhibition of PVR binding to h-TIGIT [2]: > 90%

B6: 3G7 bivalent VHH antibody (Fc fusion)
VHH: QVQLVESGGGLVQAGDSLRLSCEASGRTLSTYTMGWFRRAPGKEREFVGLAWPSPSTYVVDSVKGRFTISRDNAKNTIYLQMNSLKPEDTAIYYCAADYKSLTQSWLNAALDYWGQGTQVTVSS
notes: Bivalent VHH-CH2-CH3, ExpiCHO, Protein A purified
- EC50 (read off the curve), NFAT luciferase reporter, TIGIT blockade [1]: ~1000 pM
- EC50 (read off the curve) [3]: ~300 pM

B7: 3G7 VHH (VHH)
VHH: B6 VHH
notes: as for B2
- % inhibition of PVR binding to h-TIGIT [2]: > 90%

B8: 3G6 bivalent VHH antibody (Fc fusion)
VHH: QVQLVESGGGLVQAGGSLSLSCAASGSIFGISVMGWYRQAPGEQRDLVATLTRAGLTTYGDSVKGRFSISRDSAKNTVYLQMNNLKPEDTAVYYCHANIMESAASTFGRYWGQGTQVTVSS
- EC50 (read off the curve), NFAT luciferase reporter, TIGIT blockade [1]: ~3000 pM

B9: 3G6 VHH (VHH)
VHH: B8 VHH
notes: as for B2
- % inhibition of PVR binding to h-TIGIT [2]: > 90%

B10: 2B7 bivalent VHH antibody (Fc fusion)
VHH: QVQLVESGGGLVQAGGSLRLACAASGRTFSSYPMGWFRQGPGKERESVAAISSDGRFTYYAASVKGRFTISKDNAKSAAFLQMNSLKPEDTAVYYCAARDSGSGYYSRAQWYDYWGQGTQVTVSS
notes: as for B6
- EC50 (read off the curve), NFAT luciferase reporter, TIGIT blockade [4]: ~1000 pM
- EC50 (read off the curve) [3]: ~200 pM

B11: 13H11 VHH (VHH)
VHH: B10 VHH with A21S, R27L, S31M, P33A
notes: as for B2
- % inhibition of PVR binding to h-TIGIT [2]: > 90%

B12: 2B7 VHH (VHH)
VHH: B10 VHH
notes: as for B2
- % inhibition of PVR binding to h-TIGIT [2]: > 90%

B13: 1G1-chimeric (1G1 bivalent VHH antibody) (Fc fusion)
chain: B10 VHH with G16D, A21S, A23V, R27P, T28S, Q120L
notes: Llama VHH of 1G1 with human IgG1 CH2 and CH3 domains; also called chimeric clone; not shown: human IgG1 CH2 and CH3 domains
- EC50 (read off the curve), NFAT luciferase reporter, TIGIT blockade [4]: ~1000 pM
- EC50 (read off the curve) [5]: ~80 pM
- EC50 (read off the curve), NFAT luciferase reporter, TIGIT blockade [6]: ~700 pM
- EC50 (read off the curve) [3]: ~100 pM

B14: 1G1 VHH (VHH)
VHH: B10 VHH with G16D, A21S, A23V, R27P, T28S, Q120L
notes: as for B2
- % inhibition of PVR binding to h-TIGIT [2]: > 90%

B15: 1G1-F-G-ERES humanized bivalent antibody (Fc fusion)
VHH: QVQLVESGGGVVQPGRSLRLSCAASGPSFSSYPMGWFRQGPGKERESVAAISSDGRFTYYADSVKGRFTISRDNSKNTLYLQMNSLRAEDTAVYYCAARDSGSGYYSRAQWYDYWGQGTLVTVSS
notes: Humanized on germline IGHV-3-30*01
- EC50 (read off the curve) [5]: ~200 pM
- EC50 (read off the curve), NFAT luciferase reporter, TIGIT blockade [6]: 1000 to 1600 pM

B16: Bivalent 2A3 antibody (2A3-Fc) (Fc fusion)
chain: B15 VHH with P27G, G40A, G55M, S103V
notes: ExpiCHO, protein A purified; also called 2A3 clone; parental 2A3-Fc; not shown: human IgG1 CH2 and CH3 domains
- EC50, NFAT luciferase reporter assay (n=3) [7]: 480 pM
- EC50 [8]: 320 pM
- EC50 (read off the curve), NFAT luciferase reporter, TIGIT blockade [9]: ~700 pM
- EC50 (read off the curve), NFAT luciferase reporter, TIGIT blockade [10]: ~1000 pM

B17: 15A5 VHH (VHH)
VHH: QVQLVESGGGLVQAGGSLRLSCAASERTFSSFAMGWFRQAPGKEREVVAAIDPSGRYIYYKDSVKGRFTMSRDNAKSTVYLQMNSLKPDDTARYYCAARIRGEGYYTRSSFYHYWGQGTQVTVSS
notes: as for B2
- % inhibition of PVR binding to h-TIGIT [2]: > 90%

B18: 1C12-EREF humanized bivalent antibody (Fc fusion)
VHH: B5 VHH with L11V, T14P, D16R, S74N, A75S, E76K, T79L, I83M, P88A
- EC50 (read off the curve), NFAT luciferase reporter, TIGIT blockade [11]: ~2000 pM

B19: 1C12-chimeric (1C12 bivalent VHH antibody) (Fc fusion, not shown: small tags and cut ends)
chain: B5 VHH
- EC50 (read off the curve), NFAT luciferase reporter, TIGIT blockade [4]: ~1000 pM
- EC50 (read off the curve), NFAT luciferase reporter, TIGIT blockade [6]: ~800 pM
- EC50 (read off the curve), NFAT luciferase reporter, TIGIT blockade [11]: ~700 pM

B20: 1C12-GLEW humanized bivalent antibody (Fc fusion)
VHH: QVQLVESGGGVVQPGRSLRLSCAASSRIFSRYGMGWFRQAPGKGLEWVAAISWNGASTTYTDSVKGRFTISRDNSKNTLYLQMNSLRAEDTAVYYCAADPWGAVKLGTAEYEYWGQGTQVTVSS
- EC50 (read off the curve), NFAT luciferase reporter, TIGIT blockade [11]: ~2000 pM

B21: 1C12-EREW humanized bivalent antibody (Fc fusion)
VHH: B20 VHH with G44E, L45R
- EC50 (read off the curve), NFAT luciferase reporter, TIGIT blockade [11]: ~3000 pM
